# Source: patent publication US20060241051A1 (Takeda / Millennium, published 2006)
# Numbered stars: 1 amine (or outer) side, 2 acyl side, 3 side chain; on linkers, the order of the positions; unused ones are H or OH. Square brackets hold non-standard residues; d marks the D form. Ends that are not written are not given here. * marks the point of attachment. Ala(2-Qui) = 2-quinolylalanine, O=C([C@H](Cc1ccc2ccccc2n1)N[*:1])[*:2]; Propanoyl(3-(3-pyridyl)) = O=C(CCc1cccnc1)*; Phe(4-F) = N[C@@H](Cc1ccc(F)cc1)C(=O)O; Arg(Me) = CNC(=N)NCCC[C@H](N)C(=O)O; Lys(Me2) = CN(C)CCCC[C@H](N)C(=O)O; 4Pal = N[C@@H](Cc1ccncc1)C(=O)O; d3Pal = N[C@H](Cc1cccnc1)C(=O)O; d4Pal = N[C@H](Cc1ccncc1)C(=O)O; Cha = N[C@@H](CC1CCCCC1)C(=O)O; Orn = NCCC[C@H](N)C(=O)O; Boc = CC(C)(C)OC(=O)*; azaGly = NNC(=O)O
# B1: Compound No. 375: 2-Aminoethyl-Gly-[D-Tyr1,Arg(Me)9]MS10 (peptide)
# peptide: {2‑aminoethyl}-G[dY]NWNSFGL[Arg(Me)]F-NH2
# modifications: not fully specified (residue 1); printed as 2-Aminoethyl-Gly-[D-Tyr1,Arg(Me)9]MS10
# B2: Compound No. 385: des(1)-[D-Tyr2,D-Pya(4) 3,AzaGly7,Arg(Me)9,Trp10]MS10 (peptide)
# peptide: [dY][d4Pal]NSF[azaGly]L[Arg(Me)]W-NH2
# modifications: N-terminus assumed
# SMILES: CNC(=N)NCCC[C@H](NC(=O)[C@H](CC(C)C)NC(=O)NNC(=O)[C@H](Cc1ccccc1)NC(=O)[C@H](CO)NC(=O)[C@H](CC(N)=O)NC(=O)[C@@H](Cc1ccncc1)NC(=O)[C@H](N)Cc1ccc(O)cc1)C(=O)N[C@@H](Cc1c[nH]c2ccccc12)C(N)=O
# B3: Compound No. 386: des(1-3)-3-Pyridylpropionyl-[AzaGly7,Arg(Me)9,Trp10]MS10 (peptide)
# peptide: {Propanoyl(3-(3-pyridyl))}-NSF[azaGly]L[Arg(Me)]W-NH2
# SMILES: CNC(=N)NCCC[C@H](NC(=O)[C@H](CC(C)C)NC(=O)NNC(=O)[C@H](Cc1ccccc1)NC(=O)[C@H](CO)NC(=O)[C@H](CC(N)=O)NC(=O)CCc1cccnc1)C(=O)N[C@@H](Cc1c[nH]c2ccccc12)C(N)=O
# B4: Compound No. 387: Dap-[D-Tyr1,Arg(Me)9]MS10 (peptide)
# peptide: XYNWNSFGLRF
# modifications: N-terminal Dap added before position 1; D-Tyr1; Arg(Me)9 (MS10 numbering); C-terminal amide
# B5: Compound No. 397: Methylthiocarbamoyl-Sar-[D-Tyr1,Arg(Me)9]MS10 (peptide)
# peptide: GYNWNSFGLRF
# modifications: N-terminal Methylthiocarbamoyl-Sar added before position 1; D-Tyr1; Arg(Me)9 (MS10 numbering); C-terminal amide
# B6: Compound No. 56: [Lys2]MS10 (peptide)
# peptide: YKWNSFGLRF-NH2
# B7: Compound No. 74: [Ser1]MS10 (peptide)
# peptide: SNWNSFGLRF-NH2
# B8: Compound No. 76: [Lys1]MS10 (peptide)
# peptide: KNWNSFGLRF-NH2
# B9: Compound No. 79: [Hph10]MS10 (peptide)
# peptide: YNWNSFGLRX
# modifications: Hph10; C-terminal amide
# B10: Compound No. 87: des(4-5)-Boc-MS10 (peptide)
# peptide: Boc-YNWFGLRF-NH2
# SMILES: CC(C)C[C@H](NC(=O)CNC(=O)[C@H](Cc1ccccc1)NC(=O)[C@H](Cc1c[nH]c2ccccc12)NC(=O)[C@H](CC(N)=O)NC(=O)[C@H](Cc1ccc(O)cc1)NC(=O)OC(C)(C)C)C(=O)N[C@@H](CCCNC(=N)N)C(=O)N[C@@H](Cc1ccccc1)C(N)=O
# B11: Compound No. 88: des(4-5)-MS10 (peptide)
# peptide: YNWFGLRF-NH2
# B12: Compound No. 98: [Lys(Me2)9]MS10 (peptide)
# peptide: YNWNSFGL[Lys(Me2)]F-NH2
# B13: Compound No. 172: [D-Tyr1,Cha6,Arg(Me)9]MS10 (peptide)
# peptide: YNWNSXGLRF
# modifications: D-Tyr1; Cha6; Arg(Me)9; C-terminal amide
# B14: Compound No. 173: [D-Tyr1,Ala7,Arg(Me)9]MS10 (peptide)
# peptide: [dY]NWNSFAL[Arg(Me)]F-NH2
# modifications: N-terminus assumed
# SMILES: CNC(=N)NCCC[C@H](NC(=O)[C@H](CC(C)C)NC(=O)[C@H](C)NC(=O)[C@H](Cc1ccccc1)NC(=O)[C@H](CO)NC(=O)[C@H](CC(N)=O)NC(=O)[C@H](Cc1c[nH]c2ccccc12)NC(=O)[C@H](CC(N)=O)NC(=O)[C@H](N)Cc1ccc(O)cc1)C(=O)N[C@@H](Cc1ccccc1)C(N)=O
# B15: Compound No. 207: [D-Tyr1,Ser4,Arg(Me)9]MS10 (peptide)
# peptide: [dY]NWSSFGL[Arg(Me)]F-NH2
# modifications: N-terminus assumed
# SMILES: CNC(=N)NCCC[C@H](NC(=O)[C@H](CC(C)C)NC(=O)CNC(=O)[C@H](Cc1ccccc1)NC(=O)[C@H](CO)NC(=O)[C@H](CO)NC(=O)[C@H](Cc1c[nH]c2ccccc12)NC(=O)[C@H](CC(N)=O)NC(=O)[C@H](N)Cc1ccc(O)cc1)C(=O)N[C@@H](Cc1ccccc1)C(N)=O
# B16: Compound No. 209: [D-Tyr1,Gln4,Arg(Me)9]MS10 (peptide)
# peptide: [dY]NWQSFGL[Arg(Me)]F-NH2
# modifications: N-terminus assumed
# SMILES: CNC(=N)NCCC[C@H](NC(=O)[C@H](CC(C)C)NC(=O)CNC(=O)[C@H](Cc1ccccc1)NC(=O)[C@H](CO)NC(=O)[C@H](CCC(N)=O)NC(=O)[C@H](Cc1c[nH]c2ccccc12)NC(=O)[C@H](CC(N)=O)NC(=O)[C@H](N)Cc1ccc(O)cc1)C(=O)N[C@@H](Cc1ccccc1)C(N)=O
# B17: Compound No. 297: [D-Tyr1,Thr5,AzaGly7,Arg(Me)9]MS10 (peptide)
# peptide: [dY]NWNTF[azaGly]L[Arg(Me)]F-NH2
# B18: Compound No. 298: [D-Tyr1,D-Asn2,Thr5,AzaGly7,Arg(Me)9]MS10 (peptide)
# peptide: [dY][dN]WNTF[azaGly]L[Arg(Me)]F-NH2
# B19: Compound No. 316: [D-Tyr1,D-Asn2,Thr3,AzaGly7,Arg(Me)9,Phe(4F)10]MS10 (peptide)
# peptide: [dY][dN]TNSF[azaGly]L[Arg(Me)][Phe(4-F)]-NH2
# B20: Compound No. 291: [D-Pya(3)1,D-Tyr2,Cha3,AzaGly7,Arg(Me)9]MS10 (peptide)
# peptide: [d3Pal][dY][Cha]NSF[azaGly]L[Arg(Me)]F-NH2
# modifications: N-terminus assumed
# SMILES: CNC(=N)NCCC[C@H](NC(=O)[C@H](CC(C)C)NC(=O)NNC(=O)[C@H](Cc1ccccc1)NC(=O)[C@H](CO)NC(=O)[C@H](CC(N)=O)NC(=O)[C@H](CC1CCCCC1)NC(=O)[C@@H](Cc1ccc(O)cc1)NC(=O)[C@H](N)Cc1cccnc1)C(=O)N[C@@H](Cc1ccccc1)C(N)=O
# B21: Compound No. 296: [6Ψ7,CSNH,D-Tyr1,Arg(Me)9]MS10 (peptide)
# peptide: [dY]NWNSFGL[Arg(Me)]F-NH2
# modifications: also: Phe6-Gly7 thioamide (CSNH)
# notes: also called [6y7,CSNH,D-Tyr1,Arg(Me)9]MS10
# B22: Compound No. 301: [D-Tyr1,Ala(2-Qui) 3,AzaGly7,Arg(Me)9]MS10 (peptide)
# peptide: [dY]N[Ala(2-Qui)]NSF[azaGly]L[Arg(Me)]F-NH2
# modifications: N-terminus assumed
# SMILES: CNC(=N)NCCC[C@H](NC(=O)[C@H](CC(C)C)NC(=O)NNC(=O)[C@H](Cc1ccccc1)NC(=O)[C@H](CO)NC(=O)[C@H](CC(N)=O)NC(=O)[C@H](Cc1ccc2ccccc2n1)NC(=O)[C@H](CC(N)=O)NC(=O)[C@H](N)Cc1ccc(O)cc1)C(=O)N[C@@H](Cc1ccccc1)C(N)=O
# B23: Compound No. 302: [D-Tyr1,D-Pya(4) 3,AzaGly7,Arg(Me)9]MS10 (peptide)
# peptide: [dY]N[d4Pal]NSF[azaGly]L[Arg(Me)]F-NH2
# B24: Compound No. 304: [D-Asn2,Pya(4) 3,AzaGly7,Arg(Me)9]MS10 (peptide)
# peptide: Y[dN][4Pal]NSF[azaGly]L[Arg(Me)]F-NH2
# B25: Compound No. 306: [D-Pya(4)1,D-Asn2,Cha3,AzaGly7,Arg(Me)9]MS10 (peptide)
# peptide: [d4Pal][dN][Cha]NSF[azaGly]L[Arg(Me)]F-NH2
# modifications: N-terminus assumed
# SMILES: CNC(=N)NCCC[C@H](NC(=O)[C@H](CC(C)C)NC(=O)NNC(=O)[C@H](Cc1ccccc1)NC(=O)[C@H](CO)NC(=O)[C@H](CC(N)=O)NC(=O)[C@H](CC1CCCCC1)NC(=O)[C@@H](CC(N)=O)NC(=O)[C@H](N)Cc1ccncc1)C(=O)N[C@@H](Cc1ccccc1)C(N)=O
# B26: Compound No. 310: [Nar9]MS10 (peptide)
# peptide: YNWNSFGLXF
# modifications: Nar9; C-terminal amide
# B27: Compound No. 311: [Nar(Me)9]MS10 (peptide)
# peptide: YNWNSFGLXF
# modifications: Nar(Me)9; C-terminal amide
# B28: Compound No. 312: [Har(Me)9]MS10 (peptide)
# peptide: YNWNSFGLXF
# modifications: Har(Me)9; C-terminal amide
# B29: Compound No. 314: [Orn9]MS10 (peptide)
# peptide: YNWNSFGL[Orn]F-NH2
# modifications: N-terminus assumed
# SMILES: CC(C)C[C@H](NC(=O)CNC(=O)[C@H](Cc1ccccc1)NC(=O)[C@H](CO)NC(=O)[C@H](CC(N)=O)NC(=O)[C@H](Cc1c[nH]c2ccccc12)NC(=O)[C@H](CC(N)=O)NC(=O)[C@@H](N)Cc1ccc(O)cc1)C(=O)N[C@@H](CCCN)C(=O)N[C@@H](Cc1ccccc1)C(N)=O
# B30: Compound No. 317: [D-Tyr1,D-Asn2,Pya(4) 3,AzaGly7,Arg(Me)9,Phe(4F)10]MS10 (peptide)
# peptide: [dY][dN][4Pal]NSF[azaGly]L[Arg(Me)][Phe(4-F)]-NH2
# modifications: N-terminus assumed
# SMILES: CNC(=N)NCCC[C@H](NC(=O)[C@H](CC(C)C)NC(=O)NNC(=O)[C@H](Cc1ccccc1)NC(=O)[C@H](CO)NC(=O)[C@H](CC(N)=O)NC(=O)[C@H](Cc1ccncc1)NC(=O)[C@@H](CC(N)=O)NC(=O)[C@H](N)Cc1ccc(O)cc1)C(=O)N[C@@H](Cc1ccc(F)cc1)C(N)=O
# B31: Compound No. 319: [6Ψ7,NHCO,D-Tyr1,Arg(Me)9]MS10 (peptide)
# peptide: [dY]NWNSFGL[Arg(Me)]F-NH2
# modifications: also: Phe6-Gly7 bond replaced by NHCO (retro-inverso)
# Assays:
# [1] = molecular target: human OT7T175 (metastin receptor) (human) (UniProt Q969F8); test: cell-based or functional assay
# [2] = molecular target: T1, human OT7T175 (metastin receptor) (human, UniProt Q969F8 1-398); test: cell-based or functional assay
# [3] = molecular target: T1, human OT7T175 (metastin receptor); test: FMAT competition with Cy-5-labeled metastin (40-54), hOT7T175-expressed CHO cells
# Sequence of human OT7T175 (metastin receptor) (human) (Q969F8 whole entry L364H): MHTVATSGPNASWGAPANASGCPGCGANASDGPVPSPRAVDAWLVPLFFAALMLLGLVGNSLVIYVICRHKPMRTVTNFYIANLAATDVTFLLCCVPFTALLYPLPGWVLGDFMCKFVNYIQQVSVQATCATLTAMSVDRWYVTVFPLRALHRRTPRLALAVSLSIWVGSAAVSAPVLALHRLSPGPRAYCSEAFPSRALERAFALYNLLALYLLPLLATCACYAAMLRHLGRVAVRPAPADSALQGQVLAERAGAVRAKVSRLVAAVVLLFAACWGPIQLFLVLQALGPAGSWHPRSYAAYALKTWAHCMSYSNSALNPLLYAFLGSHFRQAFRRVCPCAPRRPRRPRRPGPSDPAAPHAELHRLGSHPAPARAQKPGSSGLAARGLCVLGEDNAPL
# T1 sequence (Q969F8 whole entry L364H): as above
Binder,intracellular Ca ion level-increasing activity (FLIPR) (specific activity to metastin (1-54)) [1],intracellular Ca ion level-increasing activity (FLIPR) [2],IC50 [3] [nM]
B1,2,–,–
B2,10,–,–
B3,7,–,–
B4,1,–,–
B5,5,–,–
B6,1,–,–
B7,1,–,–
B8,1,–,–
B9,1,–,–
B10,1,–,–
B11,1,–,–
B12,0.5,–,–
B13,1,–,–
B14,1,–,–
B15,0.5,–,–
B16,0.5,–,–

Binder,intracellular Ca ion level-increasing activity (FLIPR) (specific activity to metastin (1-54)) [1],intracellular Ca ion level-increasing activity (FLIPR) [2],IC50 [3] [nM]
B17,–,1 specific activity to metastin (1-54),0.93
B18,–,5 specific activity to metastin (1-54),0.25
B19,–,1 specific activity to metastin (1-54),26
B20,–,2 specific activity to metastin (1-54),0.41
B21,–,3 specific activity to metastin (1-54),14
B22,–,1 specific activity to metastin (1-54),15
B23,–,2 specific activity to metastin (1-54),7.7
B24,–,3 specific activity to metastin (1-54),5
B25,–,2 specific activity to metastin (1-54),4.4
B26,–,3 specific activity to metastin (1-54),310
B27,–,1 specific activity to metastin (1-54),470
B28,–,3 specific activity to metastin (1-54),100
B29,–,1 specific activity to metastin (1-54),470
B30,–,1 specific activity to metastin (1-54),2.1
B31,–,3 specific activity to metastin (1-54),–
